# Test results taken from patent publication US11161912B2, “Heparanase-neutralizing monoclonal antibodies” (Technion Research & Development Foundation Limited, priority 2015, dated 2021).
# T1: recombinant active heparanase (Homo sapiens, UniProt Q9Y251, DEL111-157/INS109GSGSG)
# T1 sequence (Q9Y251 with tags, fused parts or gaps INS109GSGSG/DEL111-157): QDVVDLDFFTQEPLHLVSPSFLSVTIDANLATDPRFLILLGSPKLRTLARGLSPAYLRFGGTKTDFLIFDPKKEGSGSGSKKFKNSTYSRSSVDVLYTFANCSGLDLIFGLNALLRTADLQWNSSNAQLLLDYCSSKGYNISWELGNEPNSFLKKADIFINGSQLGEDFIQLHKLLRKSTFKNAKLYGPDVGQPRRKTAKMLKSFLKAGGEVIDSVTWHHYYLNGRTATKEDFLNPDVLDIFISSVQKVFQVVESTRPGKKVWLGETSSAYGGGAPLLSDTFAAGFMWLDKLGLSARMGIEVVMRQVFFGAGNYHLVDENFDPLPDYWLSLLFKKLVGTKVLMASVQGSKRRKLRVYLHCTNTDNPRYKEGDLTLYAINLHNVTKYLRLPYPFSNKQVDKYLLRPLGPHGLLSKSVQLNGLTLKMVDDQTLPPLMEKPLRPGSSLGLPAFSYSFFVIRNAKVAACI
# B1: mAb 9E8: monoclonal IgM raised against KKDC peptide (Lys158-Asn171) of heparanase; VH SEQ ID NO: 7, VL SEQ ID NO: 8 (antibody)
# VH: EVKLLESGGGLVQPGGSLKLSCAASGFDFSRYWMSWVRQAPGKGLEWIGEINPDSSTINYTPSLKDKFIISRDNAKNTLYLQMSKVRSEDTALYYCARRGYEGNYAMDYWGQGTSVTVSSESQSFPNVFPLVSCESPLSDKNLVAMGCLAR
# VL: DIVMTQAAPSVPVTPGESVSISCRSSKSLLHSNGNTYLYWFLQRPGQSPQLLIYRMSNLASGVPDRFSGSGSGTAFTLRISRVEAEDVGVYYCMQHLEYPFTFGSGTKLEIKRADAAPTVSIFPPSSEQLTSGGASVVCFL
# modifications: IgM constant regions
# Target: T1, recombinant active heparanase
# Assay: Heparanase enzymatic activity on 35S-labelled ECM, enzyme pre-incubated with antibody
# Type: biochemical
# Details: antibody 2 μg/ml, heparanase 200 ng, pre-incubated 2 h on ice
# Procedure: Cell lysates, heparanase activity and protein blotting. Preparation of cell lysates, protein blotting, and measurement of heparanase enzymatic activity were carried out as described (Vlodaysky I, et al. 1999, Nature Med 5(7):793-802; Arvatz et at, 2011, FASEB J 24(12):4969-4976). […] Likewise, cell lysates or tumor extracts were incubated (12 h, 37° C., pH 6.0) with the labeled ECM and sulfate labeled degradation fragments released into the incubation medium were analyzed by gel filtration on a Sepharose CL-6B column. Degradation fragments of HS side chains are eluted from Sepharose 6B at 0.5<Kav<0.8 (peak II, fractions 17-30). Nearly intact sulfate labeled HSPGs are eluted just after the void volume (Kav<0.2, peak I, fractions 1-10). […]
# FIG. 2A. […] The mixture was then applied onto dishes coated with ^35S-labeled ECM and heparanase enzymatic activity was determined as described under “Materials and Methods”. […] Blood vessels density was quantified by counting the number of CD31-positive vessels per field and is presented graphically at the right second panel. At least 25 fields of each treatment were counted. […]
# FIG. 3A. […] The mixture was then applied onto ^35S-labeled ECM-coated dishes and heparanase activity was determined as described above (lower panel). […] Quantification of the extent of CD45 staining is shown graphically in the lower panel. […]
molecule,measurement,value
B1,neutralization of heparanase enzymatic activity,neutralizes heparanase enzymatic activity to magnitude comparable with the polyclonal antibody #1453
